Results published in the nanobody polyreactivity screen of Harvey et al. (2022).

assay: yeast display, Sf9 membrane polyspecificity reagent, FACS + sequencing; frameworks hold sequencing errors
How it was run: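 Galactose induction of a Saccharomyces cerevisiae BJ5465 synthetic nanobody display library ran 36–48 hours. The cells were then stained for 1 hour at 4 °C with 10% biotinylated, detergent-solubilized Sf9 membrane reagent, pulled down on streptavidin microbeads and FACS-sorted into low and high (top ~1%) gates on expression and reagent-binding fluorescence. Labels for polyreactivity follow the gate of origin.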

| Sequence | polyreactivity (PSR sort gate) |
| --- | --- |
| QVQLVESGGGLVQAGGSLRLSCAASGSIFDSNAMGWYRQAPGKERELVATISSVGSTNYADSVKGRFTISRDNAKNTVYLQMNSLKPEDTAVYYCARVVDAQGYYSAASGGYYWGQGTQVTVSS | low polyreactivity |
| QVQLVESGGGLVQAGGSLRLSCAASGSIFDSNTRGWYRQAPGKERELVAAINWSGGRTYYADSVKGRFTISRDNPNNTVYLQMNSLKPEDTAVYYCARPSYYATYYPQPFGYNYWGQGTQVTVSS | high polyreactivity |
| QVQLVESGGGLVQAGGSLRLSCAASGSIFDSYAMGWSRQAPGKERELVAAISSGGSTNYADSVKGRFTISRDNEKNTVILQMYSLKTEDTAVYFCAADGSLDAYNYWGQGTQVSVSS | low polyreactivity |
| QVQLVESGGGLVQAGGSLRLSCAASGSIFDSYAMGWYRQAPGKERELVAAISRIGGTTYYADSVKGRFTISRDNAKNTVYLQMNTLKPEDTAVYYCAAGPLLPRYSQYGYWGLGTQVTVSS | low polyreactivity |
| QVQLVESGGGLVQAGGSLRLSCAASGSIFDSYAMGWYRQAPGKERELVAAISRSGSRTYYADSVKGRFTISRDNAKNTVYLQMNSLKPEDTAVYYCAAGLSGYSRKIYYWGQGTQVTVSS | high polyreactivity |
| QVQLVESGGGLVQAGGSLRLSCAASGSIFDSYVMGWYRHAPGKERELVAAITYSGGSTYADSVKGRFTISRDNAQNTVDLQMNSLKPEDTAVYYCAAASSFYLYLLEDYWGQGTQVTVSS | low polyreactivity |
| QVQLVESGGGLVQAGGSLRLSCAASGSIFDTNAMGWYRQAPGKERELVAAISFSGVRTYYADSVKGRFTISRDNAKNTVYLLMNSLKPEDTAVYYCNRLRISPGWRYNYWGQGTQVTVSS | high polyreactivity |
| QVQLVESGGGLVQAGGSLRLSCAASGSIFDVNAMGWYRPAPGKERELVAAISDSGGSTYYADSVKGRFTISRDNAKNTVYLQMNSLQPQDTAVYSCNADWSWYNYYDFDYWGQGTQVTVSS | low polyreactivity |
| QVQLVESGGGLVQAGGSLRLSCAASGSIFDVNAMGWYRQAPGKEREFVASITWSGGSTYYADSVKGRFTISRDNAKNTVYLQMNSLKPEDTAVYYCAARPVWVSGYLQYVYCGQGTQVTVSS | low polyreactivity |
| QVQLVESGGGLVQAGGSLRLSCAASGSIFDVNAMGWYRQAPGKERELVAAITWSGGITYYADSVKGRFTISRDNAKNTVYLQMNSLKPEDTAVYYCNVYVTAGEEDEYWGQGTQVTVSS | low polyreactivity |
| QVQLVESGGGLVQAGGSLRLSCAASGSIFDVYAMGWYRQAPGKERELVAAIRTRGGSTYYADSVKGRFTISRDNAKNTVYLQMNSLKPEDTAVYYCAAYPLVSWGRHGTKGDYWGQGTQVTVSS | low polyreactivity |
| QVQLVESGGGLVQAGGSLRLSCAASGSIFDVYAMGWYRQAPGKERELVAAITGGGSTYYADSVKGRFTISRDNAKNTVYLQMNSLKPEDTAVYYCNADRRRRSGGFAGWHFQRNDYWGQGTQVTVSS | low polyreactivity |
| QVQLVESGGGLVQAGGSLRLSCAASGSIFDVYTMGWYRQAPGKERELVAAISWSGGSTFYADSVKGRFTISRDNAKNTVYLQMNSLKPEDTAVYYCAARSYWRQYGRYGSWGQGTQVTVSS | high polyreactivity |
| QVQLVESGGGLVQAGGSLRLSCAASGSIFDVYTMGWYRQAPGKVRELVAAINTGGGSTYYADSVMGRFTISRDNAKNTVYLEMNSLKPEDTAVYYCAASVYHYGPLYYWGEGTQVTVSS | low polyreactivity |
| QVQLVESGGGLVQAGGSLRLSCAASGSIFDWNAMGWYRQAPGKERELVATISWDGGSTYYADSVKGRFTISRDNSKNTVYLQMNSLKPEDTAVYYCATVFTGKPAYYARTKYDYWGQGTQVTVSS | low polyreactivity |
| QVQLVESGGGLVQAGGSLRLSCAASGSIFDWYAMGWYRKAPGTERELVAAINEGGGSTYYADSVKGRFTISRDNAKNTVYLQMNSLKPEDTAVYYCAAGDYYLQDNYWGQGTQVTVSS | low polyreactivity |
| QVQLVESGGGLVQAGGSLRLSCAASGSIFDYNAMGWYRQAPGKERELVAAITSGTSTNYADSVKGRFTISRDNAKNTVYLQMNSLKPEDTAVYYCAADPVWAYDYWGQGTQVTVSS | low polyreactivity |
| QVQLVESGGGLVQAGGSLRLSCAASGSIFDYNAMGWYRQAPGKERELVAAITYSGGTTYADSVKGRFTISRDNAKNTVYLQMNSLKPEDTAVYYCAATSYARFAYYYWGQGTQVTVSS | low polyreactivity |
| QVQLVESGGGLVQAGGSLRLSCAASGSIFDYYAMGWYRQAPGKERELVAAINISGGDTYYADSVKGRFTISRDNAKNTVYLQMNSLKPEDTAVYYCAADWVTWWFSRVGWDYGYWGQGTQVTVSS | low polyreactivity |
| QVQLVESGGGLVQAGGSLRLSCAASGSIFDYYAMGWYRQAPGKERELVAAISNGRTTNYADSVKGRFTISRDNAKNTVYLQMNSLKPEDTAVYYCNADSALYDKAVIYSEYDYWGQGTQVTVSS | low polyreactivity |

| Sequence | polyreactivity (PSR sort gate) |
| --- | --- |
| QVQLVESGGGLVQAGGSLRLSCAASGSIFDYYAMGWYRQAPGKERELVAAISSSGDTTYYADSVKGRFTISRDTAKNTVYLQMNSLKPEDTAVYYCAARVRGYRHASNYYWGQGTQVTVSS | high polyreactivity |
| QVQLVESGGGLVQAGGSLRLSCAASGSIFDYYAMGWYRQAPGKERELVAAISTSTSSTYYADSVKGRFTISRDNAKNTVYFQMNSLKPEDTAVYYCAAEGESQPESPGYDYWGQGTQVTVSS | low polyreactivity |
| QVQLVESGGGLVQAGGSLRLSCAASGSIFEENAMGWYRQAPGKERELVAAINTRGGSTYYADSVKGRFTLSRDNAKNTVYLQMNSLKPEDTAVYYCALISRYYYWGQGTQVTVSS | high polyreactivity |
| QVQLVESGGGLVQAGGSLRLSCAASGSIFEENAMGWYRQAPGKERELVAAITIGGRTNYADSVYGRFTISRDNAKNTVYLQMNSLKPEDTAVYYCAADLSSNKYWRFWTRYYYWGQGTQVTVSS | low polyreactivity |
| QVQLVESGGGLVQAGGSLRLSCAASGSIFEEYAMGWYRQAPGKERELVARIDESGGSTYYADSVKGRFTISRDNAKNTVYLQMHSLKPEDSAVYYCAAVVTAQAYAYFTYGYDYWGQGTQVTVSS | low polyreactivity |
| QVQLVESGGGLVQAGGSLRLSCAASGSIFEEYAMGWYRQAPGKERELVARIDESGGSTYYADSVKGRFTISRDTAKNTVYLQMNSLKPEDTAVYYCAAERYSDSWGYYSVDEGSWEMDYWGQGTQVTVSS | low polyreactivity |
| QVQLVESGGGLVQAGGSLRLSCAASGSIFEGYAMGWYRQAPGKERELVADITSGGSTYYADSVKGRFTISRDNAKNTVYLQMNSLKPEDNAVYYCNRDYHWIELVYPDDRREYDYWGQGTQVTVSS | low polyreactivity |
| QVQLVESGGGLVQAGGSLRLSCAASGSIFEGYVMGWYRQAPGKERELVAGISRGSRTNYADSVKGRFTISRDNAKNTVYLQMNSLKPEDTAVYYCAAEYWGVYRGFVSSFDYWGQGTQVTVSS | high polyreactivity |
| QVQLVESGGGLVQAGGSLRLSCAASGSIFEIYAMGWYRQAPGKERELVAAISWSGGRTYYADSVKGRFTISRDNAKNTVYLQMNSLKPEDTAVYYCNAGQWRYPGLYYYWGQVTQVTVSS | high polyreactivity |
| QVQLVESGGGLVQAGGSLRLSCAASGSIFELNAMGWYRQAPGKERELVAAITSSGSSTYYADSVKGRFTISRDNAKNTVYLQMNSLKPEDTAVYYGFRPHDYWGQGTQVTVSS | low polyreactivity |
| QVQLVESGGGLVQAGGSLRLSCAASGSIFEPNAKGWYRQAPGKERELVAVINYSGGSTYYADSVKGRFTISRDNAKNTVYLQMNSLKPEDTAVYYCAASHYHYRYGTPQPEYNYWGQGTQVTVSS | low polyreactivity |
| QVQLVESGGGLVQAGGSLRLSCAASGSIFEPNAMGWYRQAPGKERELVAAISSGGSTYYADSVKGRFTISRDNAKNTVYLQMNSLKPEDTAVYYCAAYYHGYYSWGQGTQVTVSS | high polyreactivity |
| QVQLVESGGGLVQAGGSLRLSCAASGSIFEPYTMGWYRQAPGKERELVAAITGSGGSTFYADSVKGRFTISRDNAKNTVYLQMNSLKPEDTAVYYCNAFAYPYTDVDYWGQGTQVTVSS | low polyreactivity |
| QVQLVESGGGLVQAGGSLRLSCAASGSIFEPYVMGWYRQAPGKERELVAAIRQTGGSTYYADSVKGRFTISRDNAKNTVYLQMNSLKPEDTAVYYCAAVYLYYSRSDLYDYWGQGTQVTVSS | low polyreactivity |
| QVQLVESGGGLVQAGGSLRLSCAASGSIFERYAMGWYRQAPGKERELVATISKSGDSTYYADSVKGRFTISRDNAKNTVYLQMNSQKPEDTAVYYCAADGWSETSDATFYYWGQGTQVTVSS | low polyreactivity |
| QVQLVESGGGLVQAGGSLRLSCAASGSIFESNDMGWYRQAPGKERELVAAYADSVKGRFTISRDNAKNTVYLQMNSLKPEDTAVYYCAKSLSLYVVPLYEYWGQGTQVTVSS | low polyreactivity |
| QVQLVESGGGLVQAGGSLRLSCAASGSIFESYAMGWYRQAPGKERELVADITYDGGITYYADSVKGRFTISRDNAKNTVYLQMNSLKPEDTADYYCNADSVQYTPPESDYWGQGTQVTVSS | low polyreactivity |
| QVQLVESGGGLVQAGGSLRLSCAASGSIFESYAMGWYRQAPGKERELVADITYDGGITYYADSVKGRFTISRDNAKNTVYLQMNSLKPEDTAVYYCATEYRYWQSDYSTYFPYDYWGQGTQVTVSS | low polyreactivity |
| QVQLVESGGGLVQAGGSLRLSCAASGSIFETYDMGWYRQAPGKERELVAAITLSGGSTYYADSVKGRFTISRDNAKNTVYLQMNSLKPEDTAVYYCAADDSGVKVWEGDYWGQGTQVTVSS | low polyreactivity |
| QVQLVESGGGLVQAGGSLRLSCAASGSIFETYVMGWYRQAPGKERELVAAINSGGSTNYADSVKGRFTISRDNAKNTVYLQMNSLKPEDTAVYYCAAEWRGDRYRLYVVSWWYDYWGQGTQVTVSS | low polyreactivity |
